Test results: the RNAGym collection of RNA variant scans (doi:10.7554/elife.80360)

B1: Twister Ribozyme (parent)
chain: AACACUGCCAAUGCCGGUCCCAAGCCCGGAUAAAAGUGGAGGGGGCGG

Variants of: B1
Assay: self-cleavage, relative activity (ratio to wild type); higher = more cleavage; co-transcriptional

| Variant | self-cleavage |
| --- | --- |
| A1C | 0.175 |
| A1C A4C | 0.171 |
| A1C A4G | 0.131 |
| A1C A10C | 0.0756 |
| A1C A11C | 0.145 |
| A1C A11G | 0.218 |
| A1C A22G | 0.149 |
| A1C A22U | 0.14 |
| A1C A30G | 0.206 |
| A1C A32C | 0.188 |
| A1C A32G | 0.18 |
| A1C A32U | 0.228 |
| A1C A33U | 0.268 |
| A1C A34C | 0.214 |
| A1C A35C | 0.161 |
| A1C A35G | 0.186 |
| A1C A35U | 0.129 |
| A1C A40U | 0.11 |
| A1C C3G | 0.161 |
| A1C C5A | 0.198 |
| A1C C5G | 0.227 |
| A1C C8A | 0.196 |
| A1C C8U | 0.193 |
| A1C C9G | 0.23 |

| Variant | self-cleavage |
| --- | --- |
| A1C C14G | 0.124 |
| A1C C15A | 0.179 |
| A1C C15U | 0.153 |
| A1C C19G | 0.187 |
| A1C C20G | 0.0894 |
| A1C C20U | 0.187 |
| A1C C25G | 0.13 |
| A1C C25U | 0.192 |
| A1C C27A | 0.192 |
| A1C C46G | 0.181 |
| A1C C46U | 0.18 |
| A1C G7A | 0.155 |
| A1C G7C | 0.121 |
| A1C G13A | 0.12 |
| A1C G16A | 0.209 |
| A1C G17A | 0.172 |
| A1C G17U | 0.166 |
| A1C G24C | 0.168 |
| A1C G28A | 0.174 |
| A1C G28C | 0.155 |
| A1C G28U | 0.183 |
| A1C G29A | 0.184 |
| A1C G29C | 0.231 |
| A1C G29U | 0.215 |

| Variant | self-cleavage |
| --- | --- |
| A1C G36C | 0.159 |
| A1C G38A | 0.189 |
| A1C G38C | 0.22 |
| A1C G39U | 0.129 |
| A1C G42A | 0.16 |
| A1C G43A | 0.135 |
| A1C G43C | 0.141 |
| A1C G45A | 0.184 |
| A1C G45C | 0.176 |
| A1C G45U | 0.22 |
| A1C G47A | 0.168 |
| A1C G47U | 0.228 |
| A1C G48A | 0.164 |
| A1C G48C | 0.168 |
| A1C U12A | 0.223 |
| A1C U12G | 0.143 |
| A1C U18G | 0.136 |
| A1C U31A | 0.168 |
| A1C U31G | 0.144 |
| A1C U37C | 0.174 |
| A1C U37G | 0.262 |
| A1G | 0.461 |
| A1G A2G | 1.19 |
| A1G A4G | 0.237 |

| Variant | self-cleavage |
| --- | --- |
| A1G A10G | 0.438 |
| A1G A10U | 0.428 |
| A1G A11C | 0.349 |
| A1G A11G | 0.414 |
| A1G A22G | 0.165 |
| A1G A22U | 0.255 |
| A1G A23C | 0.202 |
| A1G A30C | 0.198 |
| A1G A30U | 0.436 |
| A1G A33C | 0.462 |
| A1G A34C | 0.186 |
| A1G A35G | 0.326 |
| A1G A35U | 0.447 |
| A1G A40C | 0.218 |
| A1G A40U | 0.204 |
| A1G C3G | 0.274 |
| A1G C3U | 0.294 |
| A1G C5G | 0.172 |
| A1G C8G | 0.262 |
| A1G C8U | 0.245 |
| A1G C9A | 0.226 |
| A1G C15U | 0.405 |
| A1G C19A | 0.247 |
| A1G C20A | 0.273 |

| Variant | self-cleavage |
| --- | --- |
| A1G C20U | 0.35 |
| A1G C21A | 0.157 |
| A1G C25U | 0.222 |
| A1G C26A | 0.244 |
| A1G C26G | 0.334 |
| A1G C26U | 0.188 |
| A1G C46A | 0.412 |
| A1G C46G | 0.428 |
| A1G G7A | 0.216 |
| A1G G7U | 0.137 |
| A1G G13C | 0.223 |
| A1G G13U | 0.129 |
| A1G G16C | 0.561 |
| A1G G17C | 0.128 |
| A1G G17U | 0.221 |
| A1G G24U | 0.163 |
| A1G G28A | 0.406 |
| A1G G28C | 0.466 |
| A1G G29U | 0.358 |
| A1G G36A | 0.252 |
| A1G G36U | 0.204 |
| A1G G38C | 0.304 |
| A1G G38U | 0.211 |
| A1G G39A | 0.206 |

| Variant | self-cleavage |
| --- | --- |
| A1G G39C | 0.122 |
| A1G G41A | 0.176 |
| A1G G41C | 0.186 |
| A1G G42A | 0.215 |
| A1G G42C | 0.251 |
| A1G G42U | 0.187 |
| A1G G43C | 0.255 |
| A1G G44A | 0.309 |
| A1G G45U | 0.274 |
| A1G G48C | 0.524 |
| A1G U18A | 0.509 |
| A1G U18C | 0.335 |
| A1G U18G | 0.136 |
| A1G U37A | 0.307 |
| A1G U37G | 0.295 |
| A1U | 0.0597 |
| A1U A2U | 0.0794 |
| A1U A4C | 0.0725 |
| A1U A10G | 0.0651 |
| A1U A11U | 0.0684 |
| A1U A22G | 0.0451 |
| A1U A22U | 0.0726 |
| A1U A23C | 0.09 |
| A1U A23G | 0.0754 |

| Variant | self-cleavage |
| --- | --- |
| A1U A30C | 0.0658 |
| A1U A30G | 0.074 |
| A1U A32C | 0.057 |
| A1U A32G | 0.0499 |
| A1U A32U | 0.0613 |
| A1U A33G | 0.0708 |
| A1U A34G | 0.0704 |
| A1U A34U | 0.0731 |
| A1U A35U | 0.0666 |
| A1U A40C | 0.0671 |
| A1U C3G | 0.0927 |
| A1U C3U | 0.0886 |
| A1U C5A | 0.0587 |
| A1U C5U | 0.076 |
| A1U C8A | 0.0697 |
| A1U C8G | 0.0353 |
| A1U C8U | 0.087 |
| A1U C9A | 0.0518 |
| A1U C9U | 0.0321 |
| A1U C14U | 0.08 |
| A1U C15U | 0.0337 |
| A1U C19A | 0.0579 |
| A1U C19G | 0.0665 |
